Source: US20200231671A1 (E R SQUIBB AND SONS L L C, published 2020)

Molecular target: T1, human LAG-3 (cell surface) (human, UniProt P18627 23-525)
T1 construct: whole, on cells; also called CHO-human LAG-3
T1 sequence (looked up): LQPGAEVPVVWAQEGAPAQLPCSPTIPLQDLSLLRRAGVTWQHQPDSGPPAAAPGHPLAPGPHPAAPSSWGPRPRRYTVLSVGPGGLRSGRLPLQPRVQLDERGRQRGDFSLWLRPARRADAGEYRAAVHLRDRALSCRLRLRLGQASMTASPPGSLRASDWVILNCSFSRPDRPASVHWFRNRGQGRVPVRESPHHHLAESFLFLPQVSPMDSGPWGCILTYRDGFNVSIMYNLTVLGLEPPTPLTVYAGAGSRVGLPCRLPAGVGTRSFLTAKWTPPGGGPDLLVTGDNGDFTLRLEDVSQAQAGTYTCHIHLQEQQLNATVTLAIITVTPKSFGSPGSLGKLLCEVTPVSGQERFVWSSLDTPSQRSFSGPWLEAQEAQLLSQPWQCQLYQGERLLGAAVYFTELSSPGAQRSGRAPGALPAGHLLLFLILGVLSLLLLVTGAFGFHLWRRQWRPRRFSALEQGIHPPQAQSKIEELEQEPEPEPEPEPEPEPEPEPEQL
Assay: flow cytometry, CHO cells expressing human LAG-3
Protocol: To test the ability of the antibodies to bind to cell surface LAG-3 protein, the antibodies were incubated with a CHO cell line that had been transfected to express human LAG-3 on the cell surface. The 25F7, 26H10, 25E3, 8B7, 11F2 and 17E5 monoclonal antibodies were serially diluted with cold lx PFAE buffer (1×PBS+2% FBS, 0.02% sodium azide, 2 mM Na EDTA). For the binding reaction, 50 μl of diluted antibody solution was added to a 50 μl cell suspension containing 2×10⁵ cells and the mixture was incubated on ice for 30 minutes. The cells were then washed two times with 1×PFAE buffer. A 1:100 dilution of FITC-labeled goat anti-human kappa light chain antibody (Bethyl Laboratories, Inc., Cat. # A80-115F) was added and the mixture was incubated for 30 minutes at 4° C., followed by washing twice with cold 1×PFAE buffer. After the final wash, 150 μl of cold 1×PFAE containing 10 μg/mL propidium iodide (Roche Applied Science, Cat #1 348 639) was added to each solution and analysis of antibody binding was carried out by flow cytometry using a FACScalibur flow cytometer (BD Bioscience).

B1: 11F2 human monoclonal antibody (antibody, IgG2, V domains shown)
VH: QVQLVQSGAEVKKPGASVKVSCKVSGYTLTEVSMHWVRQAPGKGLEWMGGFDPEDGETIYAQKFQGRVTMTEDTSTDTAYMELSSLRSEDTAVYYCATAFVVVVAASDYWGQGTLVTVSS
VL: EIVLTQSPATLSLSPGERATLSCRASQSVSSYLAWYQQKPGQAPRLLIYDASNRATGIPARFSGSGSGTDFTLTISSLEPEDFAVYYCQQRSNWPWTFGQGTKVEIK
EC50: 15.1 nM
